# According to patent publication US8597922B2, “Methods and compositions for producing olefins” (LS9, Inc., priority 2007, dated 2013):
# Read-outs that look alike come from different tables or passages of the source.
# Assays:
# E. coli C41 ΔfadE = format: cell-based
# Experimental: Genomic DNA encoding C. efficiens YS-134 (DSMZ44549) orfCE2459 (SEQ ID NO:6) was cloned into the NcoI and EcoRI sites of vector OP-80 (pCL1920 derivative) under the control of the Ptrc promoter. The resulting construct was then transformed into E. coli C41 ΔfadE.
# The cells were grown at 37° C. in M9 minimal media supplemented with 20 μg/mL uracil, 1% glucose (w/v), and 100 μg/mL spectinomycin. When the culture reached an OD600 of 0.8 to 1.0, it was induced with 1 mM IPTG supplemented with 0.5 mM delta-aminolaevulinic acid (heme biosynthesis precursor), and 0.05% stearic acid (as a substrate for orfCE2459). The temperature was shifted to 25° C. and cells were allowed to grow for an additional 18-20 h Cells from 1 mL of culture were resuspended with 100 μL of methanol, sonicated for 30 min, and extracted with 300 μL of ethyl acetate. After vortexing for 15 min, 300 μL of water was added, and the mixture was vortexed for another 15 min before centrifugation at 15,000 rpm for 10 min. The solvent layer was analyzed by GC-MS.
# Genomic DNA encoding Kokuria rhizophila DC2201 orfKRH21570 (SEQ ID NO:8), which was codon optimized (SEQ ID NO:9) for expression in E. coli, was cloned into the NdeI and XhoI sites of vector OP-183 (pACYC177 derivative) under the control of the Ptrc promoter. The resulting construct was then transformed into E. coli C41 ΔfadE. The cells were grown, extracted, and analyzed as in described in Example 7.
# The genomic DNA encoding Bacillus subtilis fatty acid hydroxylase, Cyp152A1 (SEQ ID NO:13) or P450Bsβ, was cloned into the NdeI and XhoI sites of vector OP-183 (pACYC177 derivative) under the control of the Ptrc promoter. The construct was used as a template to introduce a mutation at position 85 changing the Glu to His using the following primer: GTTAATGCGATTCAcGGAATGGATGGC. The resulting constructs were then transformed into E. coli C41 (ΔfadE). The cells were grown at 37° C. in M9 minimal media supplemented with 20 μg/mL uracil, 1% glucose (w/v), and 100 μg/mL carbenicillin. When the culture reached OD600 of 0.8-1.0, it was induced with 1 mM IPTG; supplemented with 0.5 mM delta-aminolaevulinic acid (heme biosynthesis precursor) and 0.05% stearic acid (as a substrate for Bsb). The temperature was shifted down to 25° C. and cells were allowed to grow for an additional 18-20 h. Cells from 1 mL of culture was resuspended with 100 μL of methanol, sonicated for 30 min, and extracted with 300 μL of ethyl acetate. After vortexing the extract for 15 min, 300 μL of water was added, vortexed for another 15 minutes before centrifugation at 15,000 rpm for 10 minutes. The solvent layer was analyzed by GC-MS.
# [1] = In vitro α-olefin synthesis by purified His-tagged protein with hydrogen peroxide; format: biochemical; conditions: 200 μL purified protein, 200 μM hydrogen peroxide, 200 μM potassium hexadecanoate, room temperature overnight
# Experimental: E. coli C41 DE3 (ΔfadE) cells were transformed with pET15b-orfKRH21570 using routine transformation techniques. Protein expression was carried out by first inoculating 5 mL of LB broth supplemented with 100 mg/L carbenicillin with a colony of the E. coli strain which was followed by shaking the cells overnight at 37° C. to produce a starter culture. This starter culture was used to inoculate 0.5 L of LB media supplemented with 100 mg/L of carbenicillin. The culture was shaken at 37° C. until an OD600 value of 0.6 was reached, after which it was induced with 1 mM IPTG and 0.5 mM delta-aminolaevulinic acid. The culture was then shaken at 25° C. for approximately 18 h. The protein was purified as described in Example 12.
# To assay the activity of ORF_KRH21570, 200 μL of purified protein was incubated with 200 μM of hydrogen peroxide and 200 μM of potassium hexadecanoate. As a negative control, the same reaction was conducted, but without the addition of either purified protein (100 mM sodium phosphate pH 7.2 was used in its place) or free fatty acid. The reactions were performed in duplicates and incubated at room temperature overnight. […] Trimethylanilinium hydroxide was added to the ethyl acetate layer at a 1:1 ratio and the extracts analyzed by GC/MS using the MAR_splitless_short method. […]
molecule,measurement,setting,value
"orf_KRH21570: ORF880 homolog P450 enzyme from Kokuria rhizophila DC2201, YP_001856010 (protein, listed as Kokuria rhizophila) MTSPFGQTRSEQGPSLLRSGYLFASRARRRAGLSSDSGCPVRMPLLGKQTVLVRGEEGVKLFYDTSRVRRDGAMPGVVQGPLFGAGAVHGLDGEAHRVRKNQLADMAYEDERVAAYKPFVAEELENLVARWKDGDNVYDSTAIAFGRASFRWAGLQWGVPEMDRWARRMSRLLDTFGRPATHLVSRLDRIALDRRFAALIKDVRAGKVNAPEDSVLAHMAALVDEHGELVDAKTAGIELQNLTRPNVAVARFAAFAATALVEHPEWVERIRAASEQRGGTLLDVPEAVAFAQEVRRVYPFVPMLPAEVTQDTEIQGCPVHKGERVVLDILGTNTDPTSWDRAATFDPERFLGVEDAEAITTFIPQGGAEVRTGHRCPGEKIAVTSLSAAVVALCRPEVQLPGDQDDLTFSWTHMLTRPVTGVRVRTTR",α-olefin produced,E. coli C41 ΔfadE; with 0.05% stearic acid feeding,1-heptadecene
same,α-olefin produced,"E. coli C41 ΔfadE; without stearic acid feeding, grown on glucose",1-heptadecadiene
same,α-olefin formed from hexadecanoic acid,[1],1-pentadecene
